This data set concerns the molecule itself. Kind of data set: BS3 chemical cross-linking of PAE cells expressing IGPR-1 (confluent versus sparse), anti-IGPR-1 Western blot. As for the experimental part:
To determine whether IGPR-1 is involved in cell-cell interaction inventors subjected PAE cells expressing IGPR-1 and ΔN-IGPR-1 to aggregation/cell-cell adhesion assay. […] To further establish role of IGPR-1 in cell-cell interaction, the inventors investigated dimerization of IGPR-1 particularly its possible trans-dimerization. Inventors reasoned that if cells are plated in confluent condition, IGPR-1 could form trans-dimerization and possibly cis-dimerization (see FIG. 9C). However, plating the cells in a sparse condition, IGPR-1 will be less able to form trans-dimerization.
A general note: Immunoblotting shows a protein as a band on a membrane.

B1: immunoglobulin containing and proline rich receptor-1 (IGPR-1), human, full length, ectopically expressed in PAE cells (receptor)
chain: LSVQQGPNLLQVRQGSQATLVCQVDQATAWERLRVKWTKDGAILCQPYITNGSLSLGVCGPQGRLSWQAPSHLTLQLDPVSLNHSGAYVCWAAVEIPELEEAEGNITRLFVDPDDPTQNRNRIASFPGFLFVLLGVGSMGVAAIVWGAWFWGRRSCQQRDSGNSPGNAFYSNVLYRPRGPPKKSEDCSGEGKDQRGQSIYSTSFPQPAPRQPHLASRPCPSPRPCPSPRPGHPVSMVRVSPRPSPTQQPRPKGFPKVGEE
modifications: N-glycosylated (apparent 55 kDa, 31 kDa after PNGase F)
notes: Expressed from the retroviral vector pMSCV.puro in PAE (porcine aortic endothelial) cells; Used on intact cells (aggregation, adhesion, BS3 cross-linking) and as whole cell lysate (GST pull-down, co-immunoprecipitation, Western blot); also called IGRP-1; TMIGD2
B1: the binding result was “binds”.

These data come from patent US20140227293A1 (TRUSTEES OF BOSTON UNIVERSITY, published 2014).
